Km and kcat data for 3 substances are collected here from publication PMC9411544, “Catalytic innovation underlies independent recruitment of polyketide synthases in cocaine and hyoscyamine biosynthesis” (Nature Communications, 2022).

In the data set the test system is CC(C)(COP(=O)(O)OP(=O)(O)OC[C@H]1O[C@@H](n2cnc3c(N)ncnc32)[C@H](O)[C@@H]1OP(=O)(O)O)[C@@H](O)C(=O)NCCC(=O)NCCSC(=O)CC(=O)O. In words: purified protein. To be noted: sole substrate, 100 mM potassium phosphate, pH 8.0, 30 °C, 20-1000 μM malonyl-CoA.

By Km is commonly meant the substrate concentration at which the rate is half of its maximum. For orientation: kcat means the number of substrate molecules converted per active site and unit of time at saturation. For the substance EnPKS1 (Erythroxylum novogranatense), under “1 ng/μL enzyme, 5 min”, the Michaelis-Menten constant (Km) worked out at 112.90 µM and the kcat is 1.89 s⁻¹.
Turning to EnPKS2 (Erythroxylum novogranatense), where the note is “2 ng/μL enzyme, 8 min”, the Km turned out to be 50.54 µM and the catalytic constant (kcat) came to 0.45 s⁻¹.
In the case of AaPYKS1 (Anisodus acutangulus), for the setting “1 ng/μL enzyme, 5 min”, the Michaelis-Menten constant (Km) came to 70.38 µM and the kcat was found to be 2.24 s⁻¹.
